Results on 9 molecules are retold here after patent publication US20230059489A1.

A word on the Kd: it is a measure of binding affinity in units of concentration. As usually defined, the koff is a measure of how fast the partners let go of each other. High values mean a short-lived complex, low ones a long-lived complex. As usually defined, the kon is the rate constant with which the complex forms. Low readings indicate slower complex formation, high ones faster complex formation.

To fix the notation:
B1: P9F1 (scFv format) (scFv, part only; not given: linker, domain order, tags, V domains shown, not shown: another chain or arm of the molecule; small tags and cut ends)
VH: EVQLLESGGGLVQPGGSLRLSCAASGFIFSSFAMSWVRQAPGKGLEWVSDISGSGASTYYADSVKGRFTISRDNSKNTLYLQMNSLRAEDTAVYYCASASGGSGSYWPYMDPWGQGTLVTVSS
VL: QSVLTQPPSASGTPGQRVTISCSGSGSNIGSNYVYWYQQLPGTAPKLLIYRNNQRPSGVPDRFSGSKSGTSASLAISGLRSEDEADYYCAAWDGSLSRPVFGTGTKLTVL
B2: P4H11 (scFv format) (scFv, part only; not given: linker, domain order, tags, V domains shown, not shown: another chain or arm of the molecule; small tags and cut ends)
VH: EVQLLESGGGLVQPGGSLRLSCAASGFTFSSYAMNWVRQAPGKGLEWVSSISGGGRSTYYADSVKGRFTISRDNSKNTLYLQMNSLRAEDTAVYYCARDLSPSDVGWGYGFDIWGQGTLVTVSS
VL: EIVLTQSPGTLSLSPGERATLSCRASQSVSNTYLAWYQQKPGQAPRLLIYDTSSRATGIPDRFSGSGSGTDFTLTISRLEPEDFAVYYCQQYGSSLTFGQGTKVEIK
B3: P4C7 (scFv format) (scFv, part only; not given: linker, domain order, tags, V domains shown, not shown: another chain or arm of the molecule; small tags and cut ends)
VH: QVQLVQSGAEVKKPGSSVKVSCKASGGTFSSYTISWVRQAPGQGLEWMGGIIPAFGIANYAQKFQGRVTITADKSTSTAYMELSSLRSEDTAVYYCAKGGSYSLDYFDIWGQGTLVTVSS
VL: EIVLTQSPGTLSLSPGERATLSCRASQYVSASLLAWYQQKPGQAPRLLIYGASTRATGIPDRFSGSGSGTDFTLTISRLEPEDFAVYYCQQYARSSTFGQGTKVEIK
B4: P7H3 (scFv format) (scFv, part only; not given: linker, domain order, tags, V domains shown, not shown: another chain or arm of the molecule; small tags and cut ends)
VH: EVQLLESGGGLVQPGGSLRLSCAASGFTFSSYAMHWVRQAPGKGLEWVSAISGSGGSTYYADSVKGRFTISRDNSKNTLYLQMNSLRAEDTAVYYCARGTRWWWGDAFDHWGQGTLVTVSS
VL: QSVLTQPPSVSVAPGKTARITCGGNNIGSKSVHWYQQKPGQAPVLVIYYDSDRPSGIPERFSGSNSGNTATLTISRVEAGDEADYYCQVWDSSTAWVFGGGTKLTVL
B5: P5A3 (scFv format) (scFv, part only; not given: linker, domain order, tags, V domains shown, not shown: another chain or arm of the molecule; small tags and cut ends)
VH: QVQLVQSGAEVKKPGSSVKVSCKASGGTFSSYYIGWVRQAPGQGLEWMGGIIPWFGTANYAQKFQGRVTITADKSTNTAYMELSSLRSEDTAVYYCAADHHDSPSGYTSGGFDVWGQGTLVTVSS
VL: QSALTQPASVSGSPGQSITISCTGTSSDVGGYNYVSWYQQHPGKAPKLMIYEVSKRPSGVPDRFSGSKSGNTASLTVSGLQAEDEADYYCSSYAGSNTVVFGGGTKLTVL
B6: P1B4 (scFv format) (scFv, part only; not given: linker, domain order, tags, V domains shown, not shown: another chain or arm of the molecule; small tags and cut ends)
VH: QVQLVQSGAEVKKPGSSVKVSCKASGGVFSRYALSWVRQAPGQGLEWMGGIIPMLGFANYAQKFQGRVTITADESTSTAYMELSSLRSEDTAVYYCATLDFGALDYWGQGTLVTVSS
VL: EIVLTQSPGTLSLSPGERATLSCRASQSVPNEQLAWYQQKPGQAPRLLIYDASSRATGIPDRFSGSGSGTDFTLTISRLEPEDFAVYYCQQYGSPPLTFGQGTKVEIK
B7: P1A5 (scFv format) (scFv, part only; not given: linker, domain order, tags, V domains shown, not shown: another chain or arm of the molecule; small tags and cut ends)
VH: QVQLVQSGAEVKKPGSSVKVSCKASGGVFSRYALSWVRQAPGQGLEWMGGIIPMLGFANYAQKFQGRVTITADESTSTAYMELSSLRSEDTAVYYCATLDFGALDYWGQGTLVTVSS
VL: EIVLTQSPGTLSLSPGERATLSCRASQAVDSSDLAWYQQKPGQAPRLLIYDAYTRPSGIPDRFSGSGSGTDFTLTISRLEPEDFAVYYCQQYGSSPLTFGGGTKLEIK
B8: P3E10 (scFv format) (scFv, part only; not given: linker, domain order, tags, V domains shown, not shown: another chain or arm of the molecule; small tags and cut ends)
VH: QVQLVQSGAEVKKPGSSVKVSCKASGGTFSSYAIQWVRQAPGQGLEWMGGIVGSWGLANYAQKFQGRVTITTDKSTSTAYMELSSLRSEDTAVYYCATSAFGELASWGQGTLVTVSS
VL: EIVLTQSPGTLSLSPGERATLSCRASQSVPSSQLAWYQQKPGQAPRLLIYDASSRATGIPDRFSGSGSGTDFTLTISRLEPEDFAVYYCQQYGSSPLTFGQGTKVEIK
B9: P5F7 (scFv format) (scFv, from a related filing, part only)
scFv: EVQLLESGGGLVQPGGSLRLSCAASGFTFSSYAMNWVRQAPGKGLEWVSSISGGGRSTYYADSVKGRFTISRDNSKNTLYLQMNSLRAEDTAVYYCARDLSPSDVGWGYGFDIWGQGTLVTVSSGGGGSGGGGSGGGGSEIVLTQSPATLSLSPGERATLSCRASQSVSSNLAWYQQKPGQAPRLLIYDTFTRATGIPARFSGSGSGTDFTLTISRLEPEDFAVYYCQQYGSSPPTFGQGTRLEIK

For this experiment, the target named is human FLT3 (hFLT3) (human) (UniProt P36888). The experiment is described as follows: SPR, Table 6, scFv format; set-up and antigen species not described. (In general: SPR reads the build-up and loss of mass on a sensor chip optically.)
Chain of human FLT3 (hFLT3) (human) (P36888 27-543 limits assumed): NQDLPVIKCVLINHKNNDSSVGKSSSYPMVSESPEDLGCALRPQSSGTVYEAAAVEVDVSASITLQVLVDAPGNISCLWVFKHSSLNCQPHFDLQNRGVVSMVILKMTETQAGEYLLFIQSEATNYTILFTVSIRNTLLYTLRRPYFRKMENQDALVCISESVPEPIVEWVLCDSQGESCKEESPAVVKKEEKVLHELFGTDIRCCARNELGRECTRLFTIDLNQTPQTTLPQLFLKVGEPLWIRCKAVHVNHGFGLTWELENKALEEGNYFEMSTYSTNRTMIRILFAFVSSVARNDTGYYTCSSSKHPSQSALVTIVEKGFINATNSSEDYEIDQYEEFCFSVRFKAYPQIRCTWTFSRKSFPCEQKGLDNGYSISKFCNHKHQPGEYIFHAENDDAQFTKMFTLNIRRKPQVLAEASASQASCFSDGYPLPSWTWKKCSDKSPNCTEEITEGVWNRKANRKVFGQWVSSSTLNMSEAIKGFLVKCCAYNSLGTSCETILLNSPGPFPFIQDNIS
Molecule B1 showed a Kd of 126 nM, a koff of 0.0286 s⁻¹, a kon of 226000 M⁻¹ s⁻¹ and a t1/2 of 0.4 min.

For the molecule B2, the dissociation constant Kd was determined as 58.3 nM, the koff was found to be 0.00933 s⁻¹, the kon amounted to 160000 M⁻¹ s⁻¹ and the t1/2 was found to be 1 min.

B3 returned a Kd of 13.6 nM, a koff of 0.00164 s⁻¹, a kon of 121000 M⁻¹ s⁻¹ and a t1/2 of 7 min.

Take B4: the Kd was 9.1 nM, the koff amounted to 0.00187 s⁻¹, the kon was found to be 205000 M⁻¹ s⁻¹ and the t1/2 came to 6.2 min.

For B5, the Kd worked out at 216 nM, the koff amounted to 0.0175 s⁻¹, the kon was 81000 M⁻¹ s⁻¹ and the t1/2 was 0.7 min.

For the molecule B6, the Kd came out at 27.3 nM, the koff worked out at 0.00327 s⁻¹, the kon came to 120000 M⁻¹ s⁻¹ and the t1/2 was found to be 3.5 min.

In turn, B7 gave a Kd of 1.1 nM, a koff of 0.000292 s⁻¹, a kon of 259000 M⁻¹ s⁻¹ and a t1/2 of 40 min.

For the molecule B8, the Kd was 65.1 nM, the koff turned out to be 0.0112 s⁻¹, the kon was found to be 172000 M⁻¹ s⁻¹ and the t1/2 is 1 min.

Regarding B9, the Kd is 1 nM, the off-rate constant (koff) was determined as 0.000197 s⁻¹, the on-rate constant (kon) was determined as 189000 M⁻¹ s⁻¹ and the t1/2 amounted to 59 min.
